The source of these data is paper PMC5059767 (2016).

The assay concerns the target His-PKAC (human wild-type PKAC) (human, UniProt P17612 1-351). Put plainly: ITC. (In general: ITC needs no label: the signal is the heat of the interaction.)

EPTLPREFTRRGRRGAVSVDSLAEL [36i peptide (25 aa ARHGAP36 pseudosubstrate motif)] yielded a Kd of 860 nM.

As a reminder, the Kd is a measure of binding affinity in units of concentration. A high value points to weaker binding.
